# Assay: label from the status in PepcDB records
row,Sequence,protein production
1,MVSSAIVLGLTAATVLVFTGIGLFAARGRIDSVETYISARDSAGSGTLAATVIASMMGVWILLSPAEAGAAFGGLPAVLGYAIGSAIPLLLFIPVGARIREVMPAGHSLTEFAYARFGSGMYLLVLLVSVFYMFIFLAAEMTGIAGALALVADVPLWQTSLLIGGFVLVYTAYGGLLASIVTDTVQTLVILPLLAVGFGGALLSLGGTSEFHATVVSADPTLLDPGFGPGLEFGLYVAFALLGANMLNQGVWQRVYAADGDGALRRGMGIAAVVVVPMLLLSGLFGIAAAGLGLTESGSASIAFFLVVAEAFPTWVTLAVVVLAVLLVMSSADTMFNAIASVVTADLARLLDDPDQRTLWLGGRGLTVAVALAAMFIGAQGYSVLQLFLTADLLAAGVFVPFLAGLYTERLTGPGALVSGIAGLLVGFTYFPSLRGLMAAIPGVGSMLPAPSFLIAFAGATLVSAALTAVATLLGGADADLDSLGREVRALDDPVADGGSEQ,failed
2,MKVELTAIEARVIGCLIEKEVTTPDQYPLSLNALTNASNQKSNREPVMALSESDVLDAVDALIERRLVSDESAFNSRVSKYQHRFCNTEFGDLKLSEQEKGIICCMLLRGAQTPGEIRTRTNRLATFHDVKEVEAVLEHLASEEKGPLVVKLPREAGKRESRYMHLFCGEVDVSAMAAAVPATSSSSVRIAQLEQEVAELREELDALKAQVESLLS,not failed
3,MQLLKELCSIHAPSGNEEPLKDFILEYIRSNAGSWSYQPVIYADNDLQDCIVLVFGNPRTAVFAHMDSIGFTVSYNNHLHPIGSPSAKEGYRLVGKDSNGDIEGVLKIVDEEWMLETDRLIDRGTEVTFKPDFREEGDFILTPYLDDRLGVWTALELAKTLEHGIIAFTCWEEHGGGSVAYLARWIYETFHVKQSLICDITWVTEGVEAGKGVAISMRDRMIPRKKYVNRIIELARQTDIPFQLEVEGAGASDGRELQLSPYPWDWCFIGAPEKDAHTPNECVHKKDIESMVGLYKYLMEKL,not failed
4,MNFLVIGSSLAFLLYILATLAIVTRLFHPKGPNITLVLSLATAAIIVHGFNDGLLFFSQDTINFNLPNVISLVSLIITIAVTLVSLRFKVNLLLPVIYGFTGLWQLVILFIPPIDSIPLVVEKVILLSHISFALIAYCVLIIATLYAFQVTYINLKLKSKNLTAVAHLPPLMQVEKQLFSILTVGTAILFISQIIGFVFLDGFLAKENAHKTILSLLSFAIYGLILWGHFEKGWRGHKVLVLMVSASALLTLAYFGSRFVKEFIL,failed
5,MSEDELYELLKTKYGFDEFRPGQLAVIQKLLAGQDVLAVLPTGTGKSLIYQLVGTALPGLVVVVSPLISLMQDQVARLNYQGEKQVAALTSQLDYGARQYLLNHLGQLKFLFISPEMLGQDIIQTALMQVQLALLVIDEAHCISTWGPDFRPDYRRLGQIRQRLQAPTTLMLTATATQRVRQDILTQLTVPDAQQILYSVNRPNIYLAVEQVNDEASKRATLQHLVTSARGPVIVYFTSKRQTDLIAEWLRTTTTLRVAAYHAGLATDDRFKIQQQFMAGQLDVICATSAFGMGINKADIRLVIHYHLPTTLADYVQEIGRAGRDGQQAMAIMLYAPGDENLVRNLNELTAATPNEIQQDYSRYQAQQPPTDDRSKVLQSYWLQGTPPTTVATIFADRQVAKERELRTLMSYVQTTTCHRTVMLTYFGEPAVTHTDQCCQLAAEPLPLAALGLMATHDEPTATIMSWDQHLAQLFLPNS,failed
6,VEFSTLPAGPPAPPQDVTVQAGVTPATIRVSWRPPVLTPTGLSNGANVTGYGVYAKGQRVAEVIFPTADSTAVELVRLRSLEAKGVTVRTLSAQGESVDSAVAAVPPELLVPPTPHP,not failed
7,MTNNEYTDISNKETDVSPANIEQLKSVSMIWFVPFVALLIGAWMIYYQLSNEGPVITIAFDSAEGMEIGKTKIKSYNVDIGEVSNIVLNENADGVIVTARMTKNAEKLLNKNSDFWLVSPEISHTGISGLSTLISGVYIEFYPSSIHEEEVDELTSEFIALKDPPVTPPGAPGLHLTLNSNDQFAYSKGDPIIYKGLTVGQFEHIHFNFEERVVYYNAFIKAPYHQLVTTNTKFWDVSGLRMDLTADGLSIQTGNIETMLTNGVTFDVPKGMENGEEITERSYFDIYANYKEADDERYKYSVEYIVLVSNTIRGLSVGAPVEYRGVLIGHVKSINLLAQRNSDRPQIFDEDIKIPILISLQPGRVGLPDNEMGVSLMKQQHQLWIKDGLRASLKTGSLLTGSLFIDFQHYSDLNNEEENTQRTDFENSQYGEYTIIPSVDDEFSQITAKASQFIDNLNALPLEKISGNTNELITEFTQTAKSFQSVSDNLSGVLDGVNQQQLTQELKTTLQSYTKLSKDLSAGSKGYEDLRQTLSALTKVMNELQPLLNQLKHQPNGLIFESGKVDAIEPKKYTPNKKAE,failed
8,TSITPSSQDICRICHCEGDDESPLITPCHCTGSLHFVHQACLQQWIKSSDTRCCELCKYEFIMETKL,not failed
9,MEIQIVTGFLGAGKTTFLNRYLPLLSGKTVVIENEFGDIGIDGDRIQEDIPVREIFAGCICCSLAMDFRKGIKEIAENFHPDRILIEPSGVGRLTDIVKACQMAREREKVSLQITKLIAIVDMASFEEYIEGFGAFYQDQIERAGLLLLSHVEAENKAQKEIIIGRLKELNPDAILYDGDWRQLENEELLKLLEEAPDYDEDARRDAAFAALPADKVFSSVSFMDLPQMRIEDLEAIMKALEKEEYGYILRAKGWIETMEKGLVHFDFTPTVSKYREEKNPAGTGGEAVVIGCGLNQAALEMLFRRKNILEHHHHHH,not failed
10,TGEPGASDLESRNNRLQLALQLNQRTQQEQLEHLERVRGQQDLILRLARHRYSAGNSLLEAAQLITQSACEIYKVDCASIWHLEDQRLEPIIAWYRDAQEHRQPEAIDASRFPDYLDALHASRAIDAHNAGHDPRTRALAQSMRPENKAMLDASIRVDGQVIGVLCLEQSGQPRAWQSDEIAFAGELADQFAQVITNHKRRAAASALHLFQRAVEQSA,failed
11,MTLTLNRQLLTSRQILVAFSGGLDSTVLLHQLVQWRTENPGVALRAIHVHHGLSANADAWVTHCENVCQQWQVPLVVERVQLAQEGLGIEAQARQARYQAFARTLLPGEVLVTAQHLDDQCETFLLALKRGSGPAGLSAMAEVSEFAGTRLIRPLLARTRGELVQWARQYDLRWIEDESNQDDSYDRNFLRLRVVPLLQQRWPHFAEATARSAALCAEQESLLDELLADDLAHCQSPQGTLQIVPMLAMSDARRAAIIRRWLAGQNAPMPSRDALVRIWQEVALAREDASPCLRLGAFEIRRYQSQLWWIKSVTGQSENIVPWQTWLQPLELPAGLGSVQLNAGGDIRPPRADEAVSVRFKAPGLLHIVGRNGGRKLKKIWQELGVPPWLRDTTPLLFYGETLIAAAGVFVTQEGVAEGENGVSFVWQKTLS,not failed
12,TEETAKVVPMAVITPAINQLTDQEKAEGWALLFDGKTTKGWRGAHKDAFPDHGWMVKDGELIVQKSDGSESTNGGDIVTEGEYSAFEFSVDFKITEGANSGIKYFVTEQEKQKGSAYGLEFQLLDDAKHPDAKLYTTFPGSRTLGSLYDLKKSENIHFNGVGEWNTAVVKVFPNNHVEHWLNGVKVLEYERGSKEFRDLVKGSKYADPSYNAGGAFGEAPKGHILLQDHGDEVAFRNIKVKELK,not failed
13,MNTMEKKTNIHAEDGKQDLLISREFDLPVELLFKAYTEPEFVEQWMGTTVLKLENKKHGSYQFETTDPKGNKHGFNGTIHEFVPDKKITRTFEMDNTPFPIQLEFLVFEKTTETTSKLNMHVIYKSVTDRDNILKLPFAQGINMAHNRIQELPTKLK,failed
14,FSIGVTGVMSAGKSTMLNAILQREILGTSVIPETANLTILRFDQNERAIVRFWNRHEWEMIAQSAQFDEGIDYFMKESLTVFGTVLHEYITQEGRTYEIPLEELSTYTSAKHPSKLCNLVKSVEIFTPLEFLDDGVEIVDTPGLDDPLTQREEITKEYLARCDVMLHLMNAAQPATQKDVDFIIDALIYQNVSRLLVILTRADSLTPQE,failed
15,METLRVSSKSRPNSVAGAIAALLRTKGEVEVQAIGPQAVNQAVKAIAIARGYIAPDNLDLVVKPAFVKLELENEERTALKFSIKAHPLET,not failed
16,MSTTGKNTTAAATDTVTERPPVFSVDGLWKVFGPKAARVPADPDLTALSPAELRSRTGCTAAVADVSFDVRKGEVFVVMGLSGSGKSTLVRCLTRLIEPTAGSIVIDGEDVRAMDRSRLRELRRHRAAMVFQHFGLLPHRTVLDNVAYGLEVQGMGRAERRERAAAIVAKVGLEGLEQRRPGQLSGGQRQRVGLARALAVDPEVLLFDEPFSALDPLIRRDMQEEVVRLHREEGRTMVFITHDLQEALKLGDRIALMRDGRVVQLGTPEEIVGSPADDYVREFVRDVPREQVLTVRTAMRPAANADEAGTGPAIRPEATVSEAIEAVARAGSAARVMSDGRCLGVVDAADLLSVVAGTAAAGSRAAGAARVGAAATGERREPTDPRPATTEEPV,failed
17,MAHACVSTSASSLRFTAGFVSASPNGSSFDSPKLSLPFEPLRSRKTNKLVSDRKNWKNSTPKAVYSGNLWTPEIPSPQGVWSIRDDLQVPSSPYFPAYAQGQGPPPMVQERFQSIISQLFQYRIIRCGGAVDDDMANIIVAQLLYLDAVDPTKDIVMYVNSPGGSVTAGMAIFDTMRHIRPDVSTVCVGLAASMGAFLLSAGTKGKRYSLPNSRIMIHQPLGGAQGGQTDIDIQANEMLHHKANLNGYLAYHTGQSLEKINQDTDRDFFMSAKEAKEYGLIDGVIMNPLKALQPLAAA,failed
18,MSKIKWSNLWKGFAMGTTDLVPGVSGGTIALLLGIYDDFIRSISGLFSKRFWESLKFLLPIGIGMVVAIGLLSKLINYLLSTHTVPTMFFFVGLIGGIIPYLLKTSRFKHTFTTPHYLLLVVGIIVIVMMTVMNSGDKHAGETLSLSTGLILKYFIAGACASSAMLLPGISGSFMLLVFGVYGTIMYAISEFVSLNFAALPILITVGCGVLFGFLCSSKLIQYLLSYYTYLTYALIIGFVIGSLYAVFPGLPSTIMIWIVSIVTLLLGFVISYRLGRLTAD,failed
19,MDPVLLLSALLLLAFGLIGVGTAEPGLLQDHLLRVGAALLALVLGHLLPPRLLLRYALHALVGVLLLLVLVLLVGDGPGGVRRWFYLGPVALQPSELAKLALILYLSSFVGRRGEDYPILGPVLAVGSLVGLVLVEPDFATAAFLAGLAVLLFVLAGIPWPRLLGMGLAVALVVLPFSGLYLAQFRYVSERFANFVDYLQGESEPGGGAYQVVQAKKALLLGGPFGQGPGATLPHLPEAHNDMVFASVVFATGWLGGAVVFLLYTLILLRSLAVGLALKGGERLLALGLGLYLALQAALNIGVTLGVLPVTGVPLPLVSYGGSSLLVSGFAVGLLSRLAREAAERPRRKGVAR,failed
20,TFYSVRMRASMNGSHEDGGKHISGGERLIPFHEMKHTVNALLEKGLSHSRGKPDFMQIQFEEVHESIKTIQPLPVHTNEVSCPEEGQKLARLLLEKEGVSRDVIEKAYEQIPEWSDVRGAVLFDIHTGKRMDQTKEKGVRVSRMDWPDANFEKWALHSHVPAHSRIKEALALASKVSRHPAVVAELCWSDDPDYITGYVAGKKMGYQRITAMKEYGTEEGCRVFFIDGSNDVNTYIHDLEKQPILIE,not failed
21,MMYPYVRLFMEMRRARRLDPLPVLGTHRSSHRCLPWDLAPWRELNNGRTLTLFDLGRAPLLVRTGMQRICSEKGWGMTVAGSSVRYRRRVVLMERLEMVSRCLGWDGRFFYMEQSLWRKGDCTSHMLLRAATTTGSGIVPPAEVAAALGAGESPPLPDWAQAWIEADALRPWPPAALEHHHHHH,failed
22,MEKALTKVTSFKVGSSWISKKAKEELSNITNDLTTFSSTVEEKAKWIFNKLKGKPLKSLPDLLKEYNLPPGLFPQNIICYEFDETKNKLTVFFSSPCEVTFKDGSAIRYATRVKGILLRGKLMGVEGMKTKVLVWVKVTTISVESSKSDKLWFTAGVKKSRSKDVYDTPHDAIKVIGEF,failed

# Reference: a protein production outcome set (Wang et al. 2014)
